# Data from publication PMC10876603.
# Molecular target: microtubules (polymerised α/β-tubulin) (UniProt Q6B856)
# Chain of UniProt Q6B856 (Q6B856 whole entry, looked up): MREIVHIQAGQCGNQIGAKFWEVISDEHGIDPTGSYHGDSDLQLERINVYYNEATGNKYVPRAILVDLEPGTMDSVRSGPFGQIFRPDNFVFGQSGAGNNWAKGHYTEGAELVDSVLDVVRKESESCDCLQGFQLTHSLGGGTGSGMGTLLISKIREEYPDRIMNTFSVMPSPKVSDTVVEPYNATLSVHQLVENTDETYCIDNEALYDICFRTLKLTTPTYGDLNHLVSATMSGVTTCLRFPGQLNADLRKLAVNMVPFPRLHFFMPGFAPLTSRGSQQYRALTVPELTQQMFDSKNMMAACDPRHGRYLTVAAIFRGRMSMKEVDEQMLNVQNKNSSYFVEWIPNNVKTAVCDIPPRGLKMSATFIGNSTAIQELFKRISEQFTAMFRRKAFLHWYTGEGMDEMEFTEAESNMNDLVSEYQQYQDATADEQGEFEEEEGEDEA
substance,measurement,value
"human CEN subcomplex with Borealin R17E, R19E, K20E (CEN-Borealin^MTBM) (from UniProt Q9NQS7 1-58; O15392 1-142; Q53HL2 1-280)","width of bundles of GMpCpp-stabilized rhodamine-labeled MTs (100 nM) after 2 min with 4 μM CEN, TIRF microscopy (single GMpCpp MTs measure 0.34 μm)",0.36 μm
